Residue numbers refer to the chain shown, from its start. Names may count otherwise.
B1: Q27L/E35D/M47V/I61V/L85M (protein)
chain: VIHVTKEVKEVATLSCGHNVSVEELALTRIYWQKDKKMVLTMMSGDVNIWPEYKNRTIFDVTNNLSIVILALRPSDEGTYECVVMKYEKDAFKREHLAEVTLSVKAD
B2: E35D/T41S/N48T (protein)
chain: B1 chain with L27Q, T41S, V47M, N48T, V61I, M85L
B3: E35D/M43I/M47L/V68M (protein, UniProt P33681 35-288, looked up, variant E35D M43I M47L V68M)
T-lymphocyte activation …: VIHVTKEVKEVATLSCGHNVSVEELAQTRIYWQKDKKMVLTMISGDLNIWPEYKNRTIFDITNNLSIMILALRPSDEGTYECVVLKYEKDAFKREHLAEVTLSVKADFPTPSISDFEIPTSNIRRIICSTSGGFPEPHLSWLENGEELNAINTTVSQDPETELYAVSSKLDFNMTTNHSFMCLIKYGHLRVNQTFNWNTTKQEHFPDNLLPSWAITLISVNGIFVICCLTYCFAPRCRERRRNERLRRESVRPV
B4: H18Y/E35D/V68M/T79M/L85M (protein, UniProt P33681 35-288, looked up, variant H18Y E35D V68M T79M L85M)
T-lymphocyte activation …: B3 T-lymphocyte activation … with H18Y, I43M, L47M, T79M, L85M
B5: Q33R/E35D/M38I/M47L/V68M (protein, UniProt P33681 35-288, looked up, variant Q33R E35D M38I M47L V68M)
T-lymphocyte activation …: B3 T-lymphocyte activation … with Q33R, M38I, I43M
B6: T13R/Q33L/E35D/M47L/V68M/L85M (protein, UniProt P33681 35-288, looked up, variant T13R Q33L E35D M47L V68M L85M)
T-lymphocyte activation …: B3 T-lymphocyte activation … with T13R, Q33L, I43M, L85M
B7: E35D/M47L/Y53F/V68M/A71G/K93R/E95V (protein, UniProt P33681 35-288, looked up, variant E35D M47L Y53F V68M A71G K93R E95V)
T-lymphocyte activation …: B3 T-lymphocyte activation … with I43M, Y53F, A71G, K93R, E95V
B8: H18Y/V22D/E35D/M47V/N48K/V68M (protein, UniProt P33681 35-288, looked up, variant H18Y V22D E35D M47V N48K V68M)
T-lymphocyte activation …: B3 T-lymphocyte activation … with H18Y, V22D, I43M, L47V, N48K
B9: H18Y/E35D/M47L/Y53F/V68M/A71G (protein, UniProt P33681 35-288, looked up, variant H18Y E35D M47L Y53F V68M A71G)
T-lymphocyte activation …: B3 T-lymphocyte activation … with H18Y, I43M, Y53F, A71G
B10: T13R/Q33L/E35D/M47V/T62S/V68M/L85M (protein, UniProt P33681 35-288, looked up, variant T13R Q33L E35D M47V T62S V68M L85M)
T-lymphocyte activation …: B3 T-lymphocyte activation … with T13R, Q33L, I43M, L47V, T62S, L85M
B11: H18Y/E35D/M38I/M47L/V68M/L85M (protein, UniProt P33681 35-288, looked up, variant H18Y E35D M38I M47L V68M L85M)
T-lymphocyte activation …: B3 T-lymphocyte activation … with H18Y, M38I, I43M, L85M

What follows are molecules tested against T1, CD28 (Homo sapiens, UniProt P10747) (assay: Flow binding to Jurkat/IL2 reporter cells (CD28)). Settings: Table E10; 33.3 nM; Jurkats (CD28).
Design: host or cells: Jurkat cells expressing an IL-2-luciferase reporter
Summary of the method: (§1)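 Cells were first blocked in PBS with 1% BSA and 0.1% sodium azide. Primary staining with fusion protein ran 45 min on ice, and secondary staining with PE anti-human Fc at 1:150 ran 30 min on ice.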

| Molecule | CD28 MFI at 33.3 nM |
| --- | --- |
| B1 | 230 |
| B2 | 72.4 |

Same assay, conditions: Table E10; 33.3 nM; relative to CD80 WT IgV-Fc

| Molecule | CD28 Fold change to WT CD80 |
| --- | --- |
| B1 | 3.5 |
| B2 | 1.1 |

Same assay, conditions: Table E11; 33.3 nM; listed as WT CD80 ECD-Fc = 1.0

| Molecule | CD28 Fold change to WT CD80 |
| --- | --- |
| B3 | 48.3 |
| B4 | 33.2 |
| B5 | 0.5 |
| B6 | 0.5 |
| B7 | 12.2 |
| B8 | 8.2 |
| B9 | 0.5 |
| B10 | 0.5 |
| B11 | 0.5 |

Same assay, conditions: Table E11; Jurkats (CD28); 33.3 nM

| Molecule | CD28 MFI at 33.3 nM |
| --- | --- |
| B3 | 1517 |
| B4 | 1041 |
| B5 | 15 |
| B6 | 15.7 |
| B7 | 383 |
| B8 | 257 |
| B9 | 15.7 |
| B10 | 16 |
| B11 | 16.7 |

Same assay, conditions: Table E16; 33.3 nM; listed as CD80 WT IgV-Fc = 1.0

| Molecule | CD28 Fold change to WT CD80 |
| --- | --- |
| B9 | 11.6 |

Same assay, conditions: Table E16; consensus variants; Jurkats (CD28); 33.3 nM

| Molecule | CD28 MFI at 33.3 nM |
| --- | --- |
| B9 | 478 |

What follows are molecules tested against T1, CD28 (assay: Jurkat/IL2 + CHO/OKT3 +/- PD-L1 reporter assay: PD-L1-dependent CD28 costimulation). Settings: Table E12; Jurkat/IL2 + CHO/OKT3/PD-L1; 5.0 nM.
Type: cell-based
Design: host or cells: Jurkat cells expressing an IL-2-luciferase reporter
Summary of the method: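 Readout is relative luminescence from lysed cocultures: test protein given 15 min at room temperature to Jurkat cells before adding CHO artificial APCs displaying OKT3 alone or OKT3 plus PD-L1, then 5 h at 37 °C, 5% CO2.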

| Molecule | Fold Increase over WT CD80-IgV-Fe | Relative Luciferase Units (RLU), CD80 Cone 5.0 nM |
| --- | --- | --- |
| B1 | 2.9 | 1166 RLU |
| B2 | 2.8 | 1136 RLU |

Same assay, conditions: Table E13; Jurkat/IL2 + CHO/OKT3/PD-L1; 5.0 nM

| Molecule | Fold Increase over WT CD80-IgV-Fe | Relative Luciferase Units (RLU), CD80 Cone 5.0 nM |
| --- | --- | --- |
| B3 | 2.7 | 1072 RLU |
| B4 | 2.9 | 1161 RLU |
| B5 | 0.4 | 147 RLU |
| B6 | 0.4 | 153 RLU |
| B7 | 3.9 | 1546 RLU |
| B8 | 2.7 | 1072 RLU |
| B9 | 0.3 | 120 RLU |
| B10 | 0.3 | 136 RLU |
| B11 | 0.5 | 198 RLU |

Same assay, conditions: Table E17; Jurkat/IL2 + CHO/OKT3/PD-L1; 5.0 nM

| Molecule | Fold Increase over WT CD80-IgV-Fe |
| --- | --- |
| B9 | 5.7 |

Same assay, conditions: Table E17; consensus variants; Jurkat/IL2 + CHO/OKT3/PD-L1; 5.0 nM

| Molecule | Relative Luciferase Units (RLU), CD80 Cone 5.0 nM |
| --- | --- |
| B9 | 2277 RLU |

The molecules below were run against huCTLA4 (Homo sapiens, UniProt P16410) (assay: Flow binding to CHO cells stably expressing CTLA4). Settings: Table E10; 33.3 nM; CHO cells stably expressing CTLA4.
Sequence of huCTLA4 (P16410 36-223): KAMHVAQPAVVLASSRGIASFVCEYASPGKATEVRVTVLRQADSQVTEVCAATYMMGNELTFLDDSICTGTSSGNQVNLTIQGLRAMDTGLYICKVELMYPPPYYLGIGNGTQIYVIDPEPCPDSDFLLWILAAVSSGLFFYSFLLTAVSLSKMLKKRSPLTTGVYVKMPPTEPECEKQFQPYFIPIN
Design: huCTLA4 and huPD-L1, full-length mammalian surface expression constructs were generated; expressed in transfected cells; host or cells: CHO cells, lentiviral transduction, sorted to >98% purity
Summary of the method: as §1

| Molecule | CTLA4 MFI at 33.3 nM |
| --- | --- |
| B1 | 27881 |
| B2 | 30262 |

Same assay, conditions: Table E10; 33.3 nM; relative to CD80 WT IgV-Fc

| Molecule | CTLA4 Fold change to WT CD80 |
| --- | --- |
| B1 | 14.6 |
| B2 | 15.8 |

Same assay, conditions: Table E11; 33.3 nM; listed as WT CD80 ECD-Fc = 1.0

| Molecule | CTLA4 Fold change to WT CD80 |
| --- | --- |
| B3 | 9.3 |
| B4 | 9.3 |
| B5 | 0.1 |
| B6 | 0.1 |
| B7 | 9.1 |
| B8 | 9.0 |
| B9 | 0.1 |
| B10 | 0.1 |
| B11 | 0.1 |

Same assay, conditions: Table E11; CHO cells stably expressing CTLA4; 33.3 nM

| Molecule | CTLA4 MFI at 33.3 nM |
| --- | --- |
| B3 | 16243 |
| B4 | 16287 |
| B5 | 107 |
| B6 | 141 |
| B7 | 16013 |
| B8 | 15798 |
| B9 | 146 |
| B10 | 105 |
| B11 | 139 |

Same assay, conditions: Table E16; 33.3 nM; listed as CD80 WT IgV-Fc = 1.0

| Molecule | CTLA4 Fold change to WT CD80 |
| --- | --- |
| B9 | 18.7 |

Same assay, conditions: Table E16; consensus variants; CHO cells stably expressing CTLA4; 33.3 nM

| Molecule | CTLA4 MFI at 33.3 nM |
| --- | --- |
| B9 | 19528 |

The molecules below were run against huPD-L1 (Homo sapiens, UniProt Q9NZQ7) (assay: Flow binding to CHO cells stably expressing PD-L1). Settings: Table E10; 33.3 nM; CHO cells stably expressing PD-L1.
Sequence of huPD-L1 (Q9NZQ7 19-290): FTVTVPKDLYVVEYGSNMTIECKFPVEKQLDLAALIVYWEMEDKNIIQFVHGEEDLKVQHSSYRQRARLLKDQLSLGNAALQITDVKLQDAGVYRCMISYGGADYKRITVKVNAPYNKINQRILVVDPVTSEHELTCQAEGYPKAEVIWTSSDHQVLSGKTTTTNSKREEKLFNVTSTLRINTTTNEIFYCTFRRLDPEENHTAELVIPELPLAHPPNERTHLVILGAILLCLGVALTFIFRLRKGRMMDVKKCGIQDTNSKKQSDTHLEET
Design: huCTLA4 and huPD-L1, full-length mammalian surface expression constructs were generated; expressed in transfected cells; host or cells: CHO cells, lentiviral transduction, sorted to >98% purity
Summary of the method: as §1

| Molecule | PD-L1 MFI at 33.3 nM |
| --- | --- |
| B1 | 2705 |
| B2 | 2191 |

Same assay, conditions: Table E10; 33.3 nM; relative to CD80 WT IgV-Fc

| Molecule | PD-L1 Fold change to WT CD80 |
| --- | --- |
| B1 | 38.5 |
| B2 | 31.2 |

Same assay, conditions: Table E10; binding to PD-L1 compared to binding to CD28

| Molecule | Ratio of PDL1:CD28 |
| --- | --- |
| B1 | 12 |
| B2 | 30 |

Same assay, conditions: Table E11; 33.3 nM; listed as WT CD80 ECD-Fc = 1.0

| Molecule | PD-L1 Fold change to WT CD80 |
| --- | --- |
| B3 | 328.4 |
| B4 | 289.5 |
| B5 | 320.4 |
| B6 | 62.7 |
| B7 | 485.9 |
| B8 | 249.8 |
| B9 | 99.1 |
| B10 | 77.0 |
| B11 | 69.7 |

Same assay, conditions: Table E11; CHO cells stably expressing PD-L1; 33.3 nM

| Molecule | PD-L1 MFI at 33.3 nM |
| --- | --- |
| B3 | 16912 |
| B4 | 14907 |
| B5 | 16502 |
| B6 | 3228 |
| B7 | 25024 |
| B8 | 12867 |
| B9 | 5105 |
| B10 | 3968 |
| B11 | 3589 |

Same assay, conditions: Table E11; MFI at 33.3 nM

| Molecule | Ratio of PDL1:CD28 |
| --- | --- |
| B3 | 11.1 |
| B4 | 14.3 |
| B5 | 1107.5 |
| B6 | 205.6 |
| B7 | 65.3 |
| B8 | 50.1 |
| B9 | 325.2 |
| B10 | 248.0 |
| B11 | 214.9 |

Same assay, conditions: Table E16; 33.3 nM; listed as CD80 WT IgV-Fc = 1.0

| Molecule | PD-L1 Fold change to WT CD80 |
| --- | --- |
| B9 | 135.1 |

Same assay, conditions: Table E16; MFI at 33.3 nM

| Molecule | Ratio of PDL1:CD28 |
| --- | --- |
| B9 | 20.0 |

Same assay, conditions: Table E16; consensus variants; CHO cells stably expressing PD-L1; 33.3 nM

| Molecule | PD-L1 MFI at 33.3 nM |
| --- | --- |
| B9 | 9576 |

Reference: patent US20220177587A1, “METHODS AND USES OF VARIANT CD80 FUSION PROTEINS AND RELATED CONSTRUCTS” (Alpine Immune Sciences, Inc., priority 2018, published 2022)
